The results in this text go back to IntAct's records for PubMed 16299177.

To fix the notation:
B1: ABSCISIC ACID-… 5-like protein 7 (Arabidopsis thaliana (Mouse-ear cress)), Q9M7Q2 (parent)
chain: MGTHINFNNLGGGGHPGGEGSSNQMKPTGSVMPLARQSSVYSLTFDELQNTLGGPGKDFGSMNMDELLKSIWTAEEAQAMAMTSAPAATAVAQPGAGIPPPGGNLQRQGSLTLPRTISQKTVDEVWKCLITKDGNMEGSSGGGGESNVPPGRQQTLGEMTLEEFLFRAGVVREDNCVQQMGQVNGNNNNGFYGNSTAAGGLGFGFGQPNQNSITFNGTNDSMILNQPPGLGLKMGGTMQQQQQQQQLLQQQQQQMQQLNQPHPQQRLPQTIFPKQANVAFSAPVNITNKGFAGAANNSINNNNGLASYGGTGVTVAATSPGTSSAENNSLSPVPYVLNRGRRSNTGLEKVIERRQRRMIKNRESAARSRARKQAYTLELEAEIEKLKKTNQELQKKQAEMVEMQKNELKETSKRPWGSKRQCLRRTLTGPW
partner: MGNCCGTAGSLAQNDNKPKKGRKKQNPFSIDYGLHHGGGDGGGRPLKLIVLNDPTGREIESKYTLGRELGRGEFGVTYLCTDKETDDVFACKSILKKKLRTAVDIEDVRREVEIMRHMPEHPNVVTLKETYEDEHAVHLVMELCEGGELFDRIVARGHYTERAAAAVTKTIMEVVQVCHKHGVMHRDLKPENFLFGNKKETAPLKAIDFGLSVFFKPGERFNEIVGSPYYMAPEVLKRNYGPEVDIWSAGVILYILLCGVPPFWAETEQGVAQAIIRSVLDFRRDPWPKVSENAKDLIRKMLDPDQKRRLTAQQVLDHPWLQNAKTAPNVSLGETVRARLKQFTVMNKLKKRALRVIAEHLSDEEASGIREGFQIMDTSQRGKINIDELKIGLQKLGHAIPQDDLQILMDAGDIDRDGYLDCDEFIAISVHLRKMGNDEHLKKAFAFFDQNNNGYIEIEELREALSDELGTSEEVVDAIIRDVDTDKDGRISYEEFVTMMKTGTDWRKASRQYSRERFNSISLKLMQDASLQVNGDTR

The first assay covers variants of B1. The note with it: with cdpkw_arath CPK32, Q6NLQ6.
Regarding S110A, the “effect of a mutation on the interaction” value is “disrupting interaction”.

A further assay covers variants of B1. As to conditions: with cdpkw_arath CPK32, Q6NLQ6. This is another data set of the same source.
S110A: the “effect of a mutation on the interaction” value is given as “decreasing interaction”.
